In publication doi:10.1101/2020.06.02.131086:

Target: human S100A5 (hA5) (human) (UniProt P33763)
Assay: ITC

Chain of UniProt P33763 (P33763 whole entry): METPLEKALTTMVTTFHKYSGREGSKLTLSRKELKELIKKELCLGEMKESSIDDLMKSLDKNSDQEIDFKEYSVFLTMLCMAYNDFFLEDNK

Kd: 4.8 µM | dH (kcal · mol^−1): -4.5
B1: α-1-syn peptide (fragment of human α-1-syntrophin) (peptide)
peptide: GAGGERWQRVLLSLAEDV
